Measured values from IntAct's records for PubMed 31515488.

B1: PDZ and LIM domain protein 3 (Homo sapiens), Q53GG5 (parent)
chain: MPQTVILPGPAPWGFRLSGGIDFNQPLVITRITPGSKAAAANLCPGDVILAIDGFGTESMTHADAQDRIKAAAHQLCLKIDRGETHLWSPQVSEDGKAHPFKINLESEPQDGNYFEHKHNIRPKPFVIPGRSSGCSTPSGIDCGSGRSTPSSVSTVSTICPGDLKVAAKLAPNIPLEMELPGVKIVHAQFNTPMQLYSDDNIMETLQGQVSTALGETPLMSEPTASVPPESDVYRMLHDNRNEPTQPRQSGSFRVLQGMVDDGSDDRPAGTRSVRAPVTKVHGGSGGAQRMPLCDKCGSGIVGAVVKARDKYRHPECFVCADCNLNLKQKGYFFIEGELYCETHARARTKPPEGYDTVTLYPKA
B2: Probable splicing factor YJU2B (Homo sapiens), P13994 (parent)
chain: MGERKGVNKYYPPDFNPEKHGSLNRYHNSHPLRERARKLSQGILIIRFEMPYNIWCDGCKNHIGMGVRYNAEKKKVGNYYTTPIYRFRMKCHLCVNYIEMQTDPANCDYVIVSGAQRKEERWDMADNEQVLTTEHEKKQKLETDAMFRLEHGEADRSTLKKALPTLSHIQEAQSAWKDDFALNSMLRRRFREKKKAIQEEEERDQALQAKASLTIPLVPETEDDRKLAALLKFHTLDSYEDKQKLKRTEIISRSWFPSAPGSASSSKVSGVLKKLAQSRRTALATSPITVGDLGIVRRRSRDVPESPQHAADTPKSGEPRVPEEAAQDRPMSPGDCPPETTETPKCSSPRGQEGSRQDKPLSPAGSSQEAADTPDTRHPCSLGSSLVADYSDSESE
partner: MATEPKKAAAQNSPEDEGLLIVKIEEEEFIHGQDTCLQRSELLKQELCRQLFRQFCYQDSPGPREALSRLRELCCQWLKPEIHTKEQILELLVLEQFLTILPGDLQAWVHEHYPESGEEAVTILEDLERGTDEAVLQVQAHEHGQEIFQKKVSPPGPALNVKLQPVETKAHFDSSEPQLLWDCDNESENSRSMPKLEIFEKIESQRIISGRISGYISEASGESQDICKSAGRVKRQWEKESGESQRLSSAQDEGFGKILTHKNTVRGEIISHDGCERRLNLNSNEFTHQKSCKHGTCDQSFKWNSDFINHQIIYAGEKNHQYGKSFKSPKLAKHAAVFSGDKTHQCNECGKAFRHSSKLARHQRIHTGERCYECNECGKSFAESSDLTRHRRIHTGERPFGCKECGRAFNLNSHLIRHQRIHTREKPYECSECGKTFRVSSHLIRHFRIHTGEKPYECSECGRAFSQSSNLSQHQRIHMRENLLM
B3: Ubl carboxyl-terminal hydrolase 18 (Homo sapiens), Q9UMW8 (parent)
chain: MSKAFGLLRQICQSILAESSQSPADLEEKKEEDSNMKREQPRERPRAWDYPHGLVGLHNIGQTCCLNSLIQVFVMNVDFTRILKRITVPRGADEQRRSVPFQMLLLLEKMQDSRQKAVRPLELAYCLQKCNVPLFVQHDAAQLYLKLWNLIKDQITDVHLVERLQALYTIRVKDSLICVDCAMESSRNSSMLTLPLSLFDVDSKPLKTLEDALHCFFQPRELSSKSKCFCENCGKKTRGKQVLKLTHLPQTLTIHLMRFSIRNSQTRKICHSLYFPQSLDFSQILPMKRESCDAEEQSGGQYELFAVIAHVGMADSGHYCVYIRNAVDGKWFCFNDSNICLVSWEDIQCTYGNPNYHWQETAYLLVYMKMEC
B4: DNA repair and recombination protein RAD54B (Homo sapiens), Q9Y620 (parent)
chain: MRRSAAPSQLQGNSFKKPKFIPPGRSNPGLNEEITKLNPDIKLFEGVAINNTFLPSQNDLRICSLNLPSEESTREINNRDNCSGKYCFEAPTLATLDPPHTVHSAPKEVAVSKEQEEKSDSLVKYFSVVWCKPSKKKHKKWEGDAVLIVKGKSFILKNLEGKDIGRGIGYKFKELEKIEEGQTLMICGKEIEVMGVISPDDFSSGRCFQLGGGSTAISHSSQVARKCFSNPFKSVCKPSSKENRQNDFQNCKPRHDPYTPNSLVMPRPDKNHQWVFNKNCFPLVDVVIDPYLVYHLRPHQKEGIIFLYECVMGMRMNGRCGAILADEMGLGKTLQCISLIWTLQCQGPYGGKPVIKKTLIVTPGSLVNNWKKEFQKWLGSERIKIFTVDQDHKVEEFIKSIFYSVLIISYEMLLRSLDQIKNIKFDLLICDEGHRLKNSAIKTTTALISLSCEKRIILTGTPIQNDLQEFFALIDFVNPGILGSLSSYRKIYEEPIILSREPSASEEEKELGERRAAELTCLTGLFILRRTQEIINKYLPPKIENVVFCRPGALQIELYRKLLNSQVVRFCLQGLLENSPHLICIGALKKLCNHPCLLFNSIKEKECSSTCDKNEEKSLYKGLLSVFPADYNPLLFTEKESGKLQVLSKLLAVIHELRPTEKVVLVSNYTQTLNILQEVCKRHGYAYTRLDGQTPISQRQQIVDGFNSQHSSFFIFLLSSKAGGVGLNLIGGSHLILYDIDWNPATDIQAMSRVWRDGQKYPVHIYRLLTTGTIEEKIYQRQISKQGLCGAVVDLTKTSEHIQFSVEELKNLFTLHESSDCVTHDLLDCECTGEEVHTGDSLEKFIVSRDCQLGPHHQKSNSLKPLSMSQLKQWKHFSGDHLNLTDPFLERITENVSFIFQNITTQATGT
partner: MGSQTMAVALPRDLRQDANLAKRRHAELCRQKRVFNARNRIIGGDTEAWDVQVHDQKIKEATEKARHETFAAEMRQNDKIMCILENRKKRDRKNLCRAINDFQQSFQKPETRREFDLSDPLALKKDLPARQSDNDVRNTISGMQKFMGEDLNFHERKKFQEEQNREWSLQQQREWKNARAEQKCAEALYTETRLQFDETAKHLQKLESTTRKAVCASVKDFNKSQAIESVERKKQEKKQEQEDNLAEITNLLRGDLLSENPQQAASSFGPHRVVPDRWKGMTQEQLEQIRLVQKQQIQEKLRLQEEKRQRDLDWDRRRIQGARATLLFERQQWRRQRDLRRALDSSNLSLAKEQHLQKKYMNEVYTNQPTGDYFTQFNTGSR
B5: Aminoacylase-1 (Homo sapiens), Q03154 (parent)
chain: MTSKGPEEEHPSVTLFRQYLRIRTVQPKPDYGAAVAFFEETARQLGLGCQKVEVAPGYVVTVLTWPGTNPTLSSILLNSHTDVVPVFKEHWSHDPFEAFKDSEGYIYARGAQDMKCVSIQYLEAVRRLKVEGHRFPRTIHMTFVPDEEVGGHQGMELFVQRPEFHALRAGFALDEGIANPTDAFTVFYSERSPWWVRVTSTGRPGHASRFMEDTAAEKLHKVVNSILAFREKEWQRLQSNPHLKEGSVTSVNLTKLEGGVAYNVIPATMSASFDFRVAPDVDFKAFEEQLQSWCQAAGEGVTLEFAQKWMHPQVTPTDDSNPWWAAFSRVCKDMNLTLEPEIMPAATDNRYIRAVGVPALGFSPMNRTPVLLHDHDERLHEAVFLRGVDIYTRLLPALASVPALPSDS
partner: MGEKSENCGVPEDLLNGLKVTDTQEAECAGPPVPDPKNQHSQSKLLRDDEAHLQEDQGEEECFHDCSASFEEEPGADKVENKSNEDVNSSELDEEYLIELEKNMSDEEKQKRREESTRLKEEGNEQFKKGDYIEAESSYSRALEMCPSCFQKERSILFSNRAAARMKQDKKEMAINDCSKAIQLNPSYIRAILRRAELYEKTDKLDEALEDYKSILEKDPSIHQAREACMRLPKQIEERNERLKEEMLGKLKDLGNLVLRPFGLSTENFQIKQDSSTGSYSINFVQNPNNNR
B6: Prolyl 4-hydroxylase subunit alpha-3 (Homo sapiens), Q7Z4N8 (parent)
chain: MGPGARLAALLAVLALGTGDPERAAARGDTFSALTSVARALAPERRLLGLLRRYLRGEEARLRDLTRFYDKVLSLHEDSTTPVANPLLAFTLIKRLQSDWRNVVHSLEASENIRALKDGYEKVEQDLPAFEDLEGAARALMRLQDVYMLNVKGLARGVFQRVTGSAITDLYSPKRLFSLTGDDCFQVGKVAYDMGDYYHAIPWLEEAVSLFRGSYGEWKTEDEASLEDALDHLAFAYFRAGNVSCALSLSREFLLYSPDNKRMARNVLKYERLLAESPNHVVAEAVIQRPNIPHLQTRDTYEGLCQTLGSQPTLYQIPSLYCSYETNSNAYLLLQPIRKEVIHLEPYIALYHDFVSDSEAQKIRELAEPWLQRSVVASGEKQLQVEYRISKSAWLKDTVDPKLVTLNHRIAALTGLDVRPPYAEYLQVVNYGIGGHYEPHFDHATSPSSPLYRMKSGNRVATFMIYLSSVEAGGATAFIYANLSVPVVRNAALFWWNLHRSGEGDSDTLHAGCPVLVGDKWVANKWIHEYGQEFRRPCSSSPED
partner: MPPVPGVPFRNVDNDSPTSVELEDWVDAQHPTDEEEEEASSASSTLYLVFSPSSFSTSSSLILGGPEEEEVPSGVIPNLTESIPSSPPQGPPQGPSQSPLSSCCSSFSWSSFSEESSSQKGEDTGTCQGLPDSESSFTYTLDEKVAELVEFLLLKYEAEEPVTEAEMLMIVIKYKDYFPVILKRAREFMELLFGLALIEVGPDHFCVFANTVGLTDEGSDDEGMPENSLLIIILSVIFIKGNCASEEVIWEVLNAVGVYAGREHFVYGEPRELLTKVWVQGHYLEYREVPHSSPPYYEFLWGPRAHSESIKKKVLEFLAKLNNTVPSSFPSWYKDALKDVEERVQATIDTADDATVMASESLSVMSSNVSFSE
B7: Double-strand-break repair protein rad21 homolog (Homo sapiens), O60216 (parent)
chain: MFYAHFVLSKRGPLAKIWLAAHWDKKLTKAHVFECNLESSVESIISPKVKMALRTSGHLLLGVVRIYHRKAKYLLADCNEAFIKIKMAFRPGVVDLPEENREAAYNAITLPEEFHDFDQPLPDLDDIDVAQQFSLNQSRVEEITMREEVGNISILQENDFGDFGMDDREIMREGSAFEDDDMLVSTTTSNLLLESEQSTSNLNEKINHLEYEDQYKDDNFGEGNDGGILDDKLISNNDGGIFDDPPALSEAGVMLPEQPAHDDMDEDDNVSMGGPDSPDSVDPVEPMPTMTDQTTLVPNEEEAFALEPIDITVKETKAKRKRKLIVDSVKELDSKTIRAQLSDYSDIVTTLDLAPPTKKLMMWKETGGVEKLFSLPAQPLWNNRLLKLFTRCLTPLVPEDLRKRRKGGEADNLDEFLKEFENPEVPREDQQQQHQQRDVIDEPIIEEPSRLQESVMEASRTNIDESAMPPPPPQGVKRKAGQIDPEPVMPPQQVEQMEIPPVELPPEEPPNICQLIPELELLPEKEKEKEKEKEDDEEEEDEDASGGDQDQEERRWNKRTQQMLHGLQRALAKTGAESISLLELCRNTNRKQAAAKFYSFLVLKKQQAIELTQEEPYSDIIATPGPRFHII

Variants of: B1
Conditions: with actn2_human ACTN2, P35609
Sequence of actn2_human ACTN2, P35609 (P35609 whole entry): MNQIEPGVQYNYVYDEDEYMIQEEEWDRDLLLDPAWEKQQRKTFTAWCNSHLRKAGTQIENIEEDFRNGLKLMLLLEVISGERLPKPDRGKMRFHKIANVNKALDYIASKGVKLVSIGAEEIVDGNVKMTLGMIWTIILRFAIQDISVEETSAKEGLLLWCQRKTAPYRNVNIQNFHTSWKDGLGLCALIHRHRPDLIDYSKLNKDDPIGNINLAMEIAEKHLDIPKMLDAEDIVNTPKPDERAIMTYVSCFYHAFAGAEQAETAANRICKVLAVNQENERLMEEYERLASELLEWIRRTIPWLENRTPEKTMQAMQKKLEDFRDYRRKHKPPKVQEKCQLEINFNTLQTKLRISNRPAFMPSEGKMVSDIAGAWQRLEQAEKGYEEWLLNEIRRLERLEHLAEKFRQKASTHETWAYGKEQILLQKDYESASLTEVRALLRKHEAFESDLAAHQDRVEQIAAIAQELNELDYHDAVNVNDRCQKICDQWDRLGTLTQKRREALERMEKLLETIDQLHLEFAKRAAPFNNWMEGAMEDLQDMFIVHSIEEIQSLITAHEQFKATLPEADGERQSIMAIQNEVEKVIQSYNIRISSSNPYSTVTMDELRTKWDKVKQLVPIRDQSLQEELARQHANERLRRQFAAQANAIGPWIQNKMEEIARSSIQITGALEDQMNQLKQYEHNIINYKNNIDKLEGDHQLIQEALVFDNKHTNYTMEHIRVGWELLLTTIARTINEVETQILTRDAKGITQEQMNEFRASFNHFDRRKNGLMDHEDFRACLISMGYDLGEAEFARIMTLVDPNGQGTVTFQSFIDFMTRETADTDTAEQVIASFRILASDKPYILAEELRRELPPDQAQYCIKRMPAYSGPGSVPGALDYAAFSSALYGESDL

Row | Variant | effect of a mutation on the interaction
1 | T245I | with no effect
2 | T279M | with no effect

Variants of: B2
Conditions: with zn165_human ZNF165, P49910

Row | Variant | effect of a mutation on the interaction
3 | S22C | with no effect

Variants of: B3
Conditions: with isg15_human ISG15, P05161
Sequence of isg15_human ISG15, P05161 (P05161 whole entry): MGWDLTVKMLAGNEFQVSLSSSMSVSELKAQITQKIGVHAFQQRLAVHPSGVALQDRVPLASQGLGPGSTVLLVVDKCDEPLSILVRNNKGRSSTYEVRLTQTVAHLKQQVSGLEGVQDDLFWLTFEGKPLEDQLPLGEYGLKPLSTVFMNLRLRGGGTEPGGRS

Row | Variant | effect of a mutation on the interaction
4 | T169M | with no effect

Variants of: B4
Conditions: with ribc2_human RIBC2, Q9H4K1

Row | Variant | effect of a mutation on the interaction
5 | L30V | with no effect

Variants of: B5
Conditions: with ttc1_human TTC1, Q99614

Row | Variant | effect of a mutation on the interaction
6 | R197W | disrupting interaction strength

Variants of: B6
Conditions: with magc2_human MAGEC2, Q9UBF1

Row | Variant | effect of a mutation on the interaction
7 | S378L | disrupting interaction strength

Variants of: B7
Conditions: with fhl3_human FHL3, Q13643
Sequence of fhl3_human FHL3, Q13643 (Q13643 whole entry): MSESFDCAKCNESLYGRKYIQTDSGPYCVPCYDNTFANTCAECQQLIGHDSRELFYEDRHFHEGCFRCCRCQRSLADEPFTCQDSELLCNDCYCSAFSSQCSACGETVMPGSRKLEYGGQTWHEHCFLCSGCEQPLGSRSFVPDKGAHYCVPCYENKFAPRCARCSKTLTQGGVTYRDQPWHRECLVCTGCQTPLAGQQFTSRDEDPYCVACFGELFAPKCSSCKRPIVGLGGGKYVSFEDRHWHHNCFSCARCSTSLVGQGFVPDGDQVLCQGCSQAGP

Row | Variant | effect of a mutation on the interaction
8 | I45V | with no effect
9 | D95H | with no effect
10 | M362L | with no effect
11 | D414E | with no effect
12 | P426S | with no effect
